The record followed here is the supplement of paper PMC7877785.

± gives the uncertainty stated by the source.

The series can be described thus: self-splicing fitness, log relative to wild type (ln ratio); higher = more splicing; Tetrahymena group I intron in knt gene, E. coli kanamycin selection, DiMSum; sequences stand for … in CUCUCU…GGAGGGAAAAGUUAUCAGGCAUGCACCUGGUAGCUAGUCUUUAAACCAAUAGAUUGCAUCGGUUUAAAAGGCAAGACCGUCAAAUUGCGGGAAAGGGGUCAACAGCCGUUCAGUACCAAGUCUCAGGGGAAACUUUGAGAUGGCCUUGCAAAGGGUAUGGUAAUAAGCUGACGGACAUGGUCCUAACCACGCAGCCAAGUCCUAAGUCAACAGAUCUUCUGUUGAUAUGGAUGCAGUUCACAGACUAAAUGUCGGUCGGGGAAGAUGUAUUCUUCUCAUAAGAUAUAGUCGGACCUCUCCUUAAUGGGAGCUAGCGGAUGAAGUGAUGCAACACUGGAGCCGCUGGGAACUAAUUUGUAUGCGAAAGUAUAUUGAUUAGUUUUGGAGUACUCGUGGUCG
The gist of the method:
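The eight P1ex-region nucleotides of an intron in the knt kanamycin-resistance gene on pET-22b(+) were all randomised and the library put into E. coli BL21(DE3). Six replicate transformations were grown overnight at 37°C or 30°C on LB agar with or without 25 μg/mL kanamycin, together with 100 μg/mL carbenicillin, 50 μM IPTG and 0.2% rhamnose. Colonies were pooled and amplicon-sequenced on an Illumina HiSeq 2500. Fitness from DiMSum is the error-weighted combination of wild-type-normalised replicate fold changes, kanamycin over none.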

For CUACAGCAAUAUUACGCAUA, the “self-splicing fitness (ln)” value is, setting by setting: (30 °C) -3.32 ± 0.24; (37 °C) -2.28 ± 0.2.
For the sequence UCAAAGCAAUAUUACGACCA, the “self-splicing fitness (ln)” value reads like this: (30 °C) -1.97 ± 0.22; (37 °C) -1.4 ± 0.23.
The corresponding values for ACAAAGCAAUAUUACGUAUC are -2.27 ± 0.072 and -1.69 ± 0.099.
The corresponding values for ACUAAGCAAUAUUACGGAGU are -3.72 ± 0.23 and -3.11 ± 0.21.
The corresponding values for AGGAAGCAAUAUUACGUGUC are -3.14 ± 0.27 and -1.57 ± 0.19.
In the case of CAUGAGCAAUAUUACGAAUU, the “self-splicing fitness (ln)” value reads like this: (30 °C) -4.16 ± 0.35; (37 °C) -2.49 ± 0.23.
The corresponding values for CACCAGCAAUAUUACGGCAA are -1.68 ± 0.099 and -0.956 ± 0.1.
For GGCUAGCAAUAUUACGAGUC, the “self-splicing fitness (ln)” value (37 °C) was -1.08 ± 0.26.
For UCGUAGCAAUAUUACGUCCU, the “self-splicing fitness (ln)” value runs as follows: (30 °C) -2.04 ± 0.21; (37 °C) -1.63 ± 0.31.
For CUACAGCAAUAUUACGCUUG, in that order: -2.37 ± 0.15 and -2.26 ± 0.16.
For GCUUAGCAAUAUUACGAUGU, in that order: -0.306 ± 0.083 and -0.00189 ± 0.11.
As to GUUGAGCAAUAUUACGCAGU, where the note is “37 °C”, the “self-splicing fitness (ln)” value was -1.25 ± 0.4.
For GAUAAGCAAUAUUACGGUCA, the “self-splicing fitness (ln)” value was -1.71 ± 0.12 (30 °C) and -0.711 ± 0.11 (37 °C).
For the sequence CAAAAGCAAUAUUACGAAGU, the “self-splicing fitness (ln)” value was -3.16 ± 0.15 (30 °C) and -2.23 ± 0.13 (37 °C).
For UCACAGCAAUAUUACGGCAG, in that order: -2.03 ± 0.12 and -0.996 ± 0.16.
The corresponding values for CGGUAGCAAUAUUACGAAAU are -2.91 ± 0.21 and -3.07 ± 0.37.
As for GGGAAGCAAUAUUACGGAUU, the “self-splicing fitness (ln)” value (30 °C) is -0.965 ± 0.07 and the “self-splicing fitness (ln)” value (37 °C) is -0.737 ± 0.1.
The corresponding values for GGACAGCAAUAUUACGGGCA are -0.731 ± 0.18 and -0.477 ± 0.17.
For GUUUAGCAAUAUUACGGUAA, in that order: -1.65 ± 0.18 and -1.24 ± 0.14.
The corresponding values for CUAGAGCAAUAUUACGUUGG are -1.71 ± 0.11 and -0.638 ± 0.13.
As for GACCAGCAAUAUUACGGUCG, the “self-splicing fitness (ln)” value was -1.98 ± 0.077 (30 °C) and -1.47 ± 0.11 (37 °C).
The corresponding values for UCAUAGCAAUAUUACGUUUU are -2.81 ± 0.14 and -1.29 ± 0.14.
For GCACAGCAAUAUUACGUUCC, in that order: -1.85 ± 0.078 and -0.808 ± 0.11.
Take UGACAGCAAUAUUACGCUGG: the “self-splicing fitness (ln)” value runs as follows: (30 °C) -2.21 ± 0.18; (37 °C) -1.92 ± 0.33.
The corresponding values for AUUUAGCAAUAUUACGGACU are 0.0925 ± 0.11 and 0.805 ± 0.13.
Take CUACAGCAAUAUUACGAGUU: the “self-splicing fitness (ln)” value (30 °C) is -4.98 ± 0.2 and the “self-splicing fitness (ln)” value (37 °C) was -2.76 ± 0.17.
The corresponding values for CGAAAGCAAUAUUACGCGUU are -4 ± 0.18 and -2.85 ± 0.2.
For AAACAGCAAUAUUACGGGCC, in that order: -3.42 ± 0.17 and -2.29 ± 0.16.
For the sequence GUCAAGCAAUAUUACGUGAC, the “self-splicing fitness (ln)” value runs as follows: (30 °C) -5.1 ± 0.39; (37 °C) -4.13 ± 0.32.
For the sequence UUAGAGCAAUAUUACGUCCU, the “self-splicing fitness (ln)” value is -1.36 ± 0.21 (30 °C) and -1.87 ± 0.31 (37 °C).
For UGGUAGCAAUAUUACGUUCC, in that order: -2.33 ± 0.23 and -1.19 ± 0.36.
As to GGAAAGCAAUAUUACGCCUG, the “self-splicing fitness (ln)” value (30 °C) was -1.73 ± 0.34.
On to UGAUAGCAAUAUUACGCACG, for which the “self-splicing fitness (ln)” value runs as follows: (30 °C) -1.41 ± 0.3; (37 °C) -0.216 ± 0.19.
The corresponding values for UACAAGCAAUAUUACGGAGU are -4.15 ± 0.29 and -1.71 ± 0.16.
On to GACAAGCAAUAUUACGUGCU, for which the “self-splicing fitness (ln)” value was -2.93 ± 0.082 (30 °C) and -1.82 ± 0.078 (37 °C).
For CGGAAGCAAUAUUACGACGC, the “self-splicing fitness (ln)” value (37 °C) is -0.637 ± 0.37.
Regarding UUCCAGCAAUAUUACGGGAC, the “self-splicing fitness (ln)” value (37 °C) was -1.29 ± 0.39.
GAUGAGCAAUAUUACGUUGA: the “self-splicing fitness (ln)” value by setting is: (30 °C) -3.32 ± 0.43; (37 °C) -1.5 ± 0.2.
For CCAUAGCAAUAUUACGUUCA, in that order: -3.17 ± 0.26 and -2.6 ± 0.44.
For GCAGAGCAAUAUUACGGCAC, in that order: -1.64 ± 0.17 and -1.42 ± 0.26.
As for UAAUAGCAAUAUUACGACUG, the “self-splicing fitness (ln)” value was -0.137 ± 0.062 (30 °C) and 0.0819 ± 0.078 (37 °C).
For GUGCAGCAAUAUUACGAACA, in that order: -1.32 ± 0.22 and -1.25 ± 0.2.
The corresponding values for ACCGAGCAAUAUUACGAAAU are -2.68 ± 0.27 and -2.76 ± 0.34.
The corresponding values for GGUCAGCAAUAUUACGGAAG are -2.27 ± 0.2 and -1.58 ± 0.23.
As to GCGCAGCAAUAUUACGCGAC, the “self-splicing fitness (ln)” value is, setting by setting: (30 °C) -1.77 ± 0.12; (37 °C) -1.79 ± 0.18.
The corresponding values for GAUCAGCAAUAUUACGCGUG are -0.471 ± 0.048 and 0.0677 ± 0.066.
For the sequence CCGGAGCAAUAUUACGUUCA, the “self-splicing fitness (ln)” value (30 °C) was -1.23 ± 0.17 and the “self-splicing fitness (ln)” value (37 °C) was -1.63 ± 0.29.
With UUACAGCAAUAUUACGUGAU, the “self-splicing fitness (ln)” value runs as follows: (30 °C) -4.22 ± 0.19; (37 °C) -2.37 ± 0.17.
Regarding CAGCAGCAAUAUUACGUAUU, the “self-splicing fitness (ln)” value is, setting by setting: (30 °C) -3.51 ± 0.25; (37 °C) -2.23 ± 0.22.
Consider GUACAGCAAUAUUACGAGCG, for which the “self-splicing fitness (ln)” value was -2.59 ± 0.11 (30 °C) and -0.624 ± 0.098 (37 °C).
For ACCGAGCAAUAUUACGUUCC, the “self-splicing fitness (ln)” value runs as follows: (30 °C) -2.7 ± 0.26; (37 °C) -1.66 ± 0.23.
For GUUCAGCAAUAUUACGAUAC, in that order: -0.948 ± 0.078 and -0.47 ± 0.13.
For UCCCAGCAAUAUUACGUUAG, in that order: -4.08 ± 0.19 and -2.78 ± 0.18.
For GCGCAGCAAUAUUACGUGGC, in that order: -1.81 ± 0.29 and -2.36 ± 0.29.
On to GCUGAGCAAUAUUACGUGUC, for which the “self-splicing fitness (ln)” value (30 °C) is -2.78 ± 0.18 and the “self-splicing fitness (ln)” value (37 °C) was -1.3 ± 0.16.
Take GUCCAGCAAUAUUACGUGUC: the “self-splicing fitness (ln)” value was -0.424 ± 0.057 (30 °C) and 0.0485 ± 0.068 (37 °C).
For GUCGAGCAAUAUUACGUGGG, in that order: -2.55 ± 0.21 and -0.374 ± 0.14.
As for UAGAAGCAAUAUUACGCAUU, the “self-splicing fitness (ln)” value runs as follows: (30 °C) -2.41 ± 0.29; (37 °C) -2.59 ± 0.3.
For AUCAAGCAAUAUUACGAGAA, in that order: -1.21 ± 0.49 and -2.28 ± 0.28.
The corresponding values for UUCAAGCAAUAUUACGAACU are -2.74 ± 0.27 and -1.62 ± 0.25.
The corresponding values for AUAGAGCAAUAUUACGAAUC are -3.82 ± 0.25 and -2.63 ± 0.3.
For the sequence AAAAAGCAAUAUUACGCACU, the “self-splicing fitness (ln)” value (30 °C) amounted to 0.146 ± 0.079 and the “self-splicing fitness (ln)” value (37 °C) was 0.322 ± 0.083.
For ACAUAGCAAUAUUACGAAGC, the “self-splicing fitness (ln)” value (37 °C) is -1.85 ± 0.42.
With UUGGAGCAAUAUUACGCCCU, the “self-splicing fitness (ln)” value (37 °C) was -1.44 ± 0.46.
With GGACAGCAAUAUUACGUAGC, the “self-splicing fitness (ln)” value (30 °C) is -0.679 ± 0.084 and the “self-splicing fitness (ln)” value (37 °C) is -0.618 ± 0.098.
The corresponding values for AUUCAGCAAUAUUACGAGAA are -1.51 ± 0.18 and -1.74 ± 0.18.
For UCGCAGCAAUAUUACGGUUU, in that order: -3.17 ± 0.12 and -1.72 ± 0.12.
For UGGUAGCAAUAUUACGUAUA, in that order: -1.51 ± 0.14 and -0.00881 ± 0.14.
Regarding UACGAGCAAUAUUACGCCAA, where the note is “30 °C”, the “self-splicing fitness (ln)” value is -2.18 ± 0.41.
For the sequence UCGCAGCAAUAUUACGAAGU, the “self-splicing fitness (ln)” value (30 °C) is -3.51 ± 0.2 and the “self-splicing fitness (ln)” value (37 °C) was -2.53 ± 0.15.
As to CGAGAGCAAUAUUACGUGGU, the “self-splicing fitness (ln)” value (37 °C) is -3.2 ± 0.37.
Consider ACAGAGCAAUAUUACGAGGC, for which the “self-splicing fitness (ln)” value was -3.42 ± 0.38 (30 °C) and -2.15 ± 0.25 (37 °C).
For CCAGAGCAAUAUUACGGCUU, in that order: -3.75 ± 0.28 and -1.8 ± 0.2.
For GACCAGCAAUAUUACGGCAC, in that order: -0.0527 ± 0.076 and 0.491 ± 0.11.
The corresponding values for CACAAGCAAUAUUACGCGUU are -2.55 ± 0.098 and -1.3 ± 0.091.
In the case of ACGCAGCAAUAUUACGGCCU, the “self-splicing fitness (ln)” value runs as follows: (30 °C) 0.271 ± 0.063; (37 °C) 0.881 ± 0.091.
The corresponding values for UUACAGCAAUAUUACGUCCU are -2.11 ± 0.1 and -0.74 ± 0.089.
For UAAUAGCAAUAUUACGCAGG, in that order: -1.82 ± 0.1 and -1.48 ± 0.14.
